Earlier results in paper PMC5726790.

Experiments:
[1] = target: C5a receptor (Homo sapiens) (UniProt P21730)
[2] = target: CCR7 (Mus musculus) (UniProt P47774)
Sequence of UniProt P47774 (P47774 25-378): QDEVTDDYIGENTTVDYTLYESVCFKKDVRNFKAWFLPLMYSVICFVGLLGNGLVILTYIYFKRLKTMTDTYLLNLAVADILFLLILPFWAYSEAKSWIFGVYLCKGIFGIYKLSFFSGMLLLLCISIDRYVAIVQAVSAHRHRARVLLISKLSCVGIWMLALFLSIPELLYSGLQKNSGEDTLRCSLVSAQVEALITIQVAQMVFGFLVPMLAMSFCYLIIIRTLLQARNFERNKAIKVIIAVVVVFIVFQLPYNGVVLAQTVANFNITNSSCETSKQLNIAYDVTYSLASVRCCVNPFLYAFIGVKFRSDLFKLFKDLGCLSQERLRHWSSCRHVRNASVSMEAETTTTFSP

Sequence of UniProt P21730 (P21730 whole entry): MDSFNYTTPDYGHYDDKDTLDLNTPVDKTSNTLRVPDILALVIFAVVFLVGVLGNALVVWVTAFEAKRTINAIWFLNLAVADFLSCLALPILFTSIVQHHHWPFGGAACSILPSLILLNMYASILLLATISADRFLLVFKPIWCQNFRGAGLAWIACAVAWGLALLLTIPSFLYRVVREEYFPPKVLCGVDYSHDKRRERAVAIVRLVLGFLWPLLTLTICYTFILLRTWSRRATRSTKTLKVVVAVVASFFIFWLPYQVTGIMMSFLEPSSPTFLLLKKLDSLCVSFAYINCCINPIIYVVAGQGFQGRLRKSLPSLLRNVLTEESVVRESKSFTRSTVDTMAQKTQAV

For C5a C5a (from UniProt P01031), the Kd [1] is given as 1 nM.

For CCL19 (from UniProt O70460), the Kd [2] is listed as 1.5 nM.
